Assays:
DMF5 T cell receptor [1] = assay: flow cytometry, tetramer titration on Jurkat T-cells transduced with DMF5
DMF5 T cell receptor [2] = assay: flow cytometry, barcoded tetramer library on Jurkat/MA cells transduced with DMF5

fold improvement in EC50 relative to photo-exchanged tetramers (DMF5 T cell receptor [1]): 2.6 fold
percent of cells stained (DMF5 T cell receptor [2]): 33%
Substance: MART-1/HLA-A*02:01 tetramer (from UniProt P61769 21-119) (peptide-MHC)

— patent publication US20240294601A1
